T1: APG09980.1-L16-nAPG07433.1 (truncated deaminase) (synthetic)
T1 chain: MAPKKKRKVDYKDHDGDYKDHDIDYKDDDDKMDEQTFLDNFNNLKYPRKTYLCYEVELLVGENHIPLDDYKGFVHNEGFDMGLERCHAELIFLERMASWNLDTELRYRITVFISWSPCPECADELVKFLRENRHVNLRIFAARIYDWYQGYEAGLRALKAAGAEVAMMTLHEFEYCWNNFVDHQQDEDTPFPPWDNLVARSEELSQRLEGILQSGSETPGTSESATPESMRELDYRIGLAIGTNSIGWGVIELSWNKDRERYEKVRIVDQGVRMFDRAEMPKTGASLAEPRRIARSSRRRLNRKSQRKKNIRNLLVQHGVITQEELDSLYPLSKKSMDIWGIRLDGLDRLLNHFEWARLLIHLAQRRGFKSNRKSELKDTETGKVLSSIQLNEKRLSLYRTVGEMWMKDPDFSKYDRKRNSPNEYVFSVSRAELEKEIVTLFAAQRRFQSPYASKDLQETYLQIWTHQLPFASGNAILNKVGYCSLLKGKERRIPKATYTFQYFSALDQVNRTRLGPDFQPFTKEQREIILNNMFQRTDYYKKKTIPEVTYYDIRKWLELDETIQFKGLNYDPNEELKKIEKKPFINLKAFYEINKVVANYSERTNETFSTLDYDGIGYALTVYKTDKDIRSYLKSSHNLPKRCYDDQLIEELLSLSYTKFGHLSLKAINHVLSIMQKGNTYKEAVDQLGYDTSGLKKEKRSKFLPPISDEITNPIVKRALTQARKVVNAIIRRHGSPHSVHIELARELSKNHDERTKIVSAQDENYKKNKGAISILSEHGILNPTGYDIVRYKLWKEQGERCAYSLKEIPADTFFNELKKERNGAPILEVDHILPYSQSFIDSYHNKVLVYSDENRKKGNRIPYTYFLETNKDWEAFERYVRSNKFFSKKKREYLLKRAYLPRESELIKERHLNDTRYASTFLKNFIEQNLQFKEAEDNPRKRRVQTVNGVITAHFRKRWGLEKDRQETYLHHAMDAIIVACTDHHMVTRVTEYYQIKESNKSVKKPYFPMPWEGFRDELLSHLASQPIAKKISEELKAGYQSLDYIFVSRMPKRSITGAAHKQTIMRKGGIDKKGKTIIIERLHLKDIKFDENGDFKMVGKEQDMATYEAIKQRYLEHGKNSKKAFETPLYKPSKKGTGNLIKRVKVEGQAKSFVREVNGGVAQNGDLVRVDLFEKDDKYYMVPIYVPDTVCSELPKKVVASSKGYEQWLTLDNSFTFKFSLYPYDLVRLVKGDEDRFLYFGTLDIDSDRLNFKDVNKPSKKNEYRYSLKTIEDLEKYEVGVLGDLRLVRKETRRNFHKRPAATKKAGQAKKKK

B1: SGN000930 sgRNA ; SGN000930 target (ssRNA ; dsDNA)
RNA: GAACAACUCAAAUGGAAAUGAAUAUGUCAUAGUUCCAUGAAAGCCAAAAGUGGCUUUGAUGUUUCUAUGAUAAGGGUUUCGGCCCGUGGCGUCGGGGAUCGCCUGCCCAUUCCGAUGGGCUUCUCCCCAUUUAUU
DNA 1: GAACAACTCAAATGGAAATGAATAT
DNA 2: ATATTCATTTCCATTTGAGTTGTTC
B2: SGN000929 sgRNA ; SGN000929 target (ssRNA ; dsDNA)
RNA: AUCUGGAGGGAACUUACAGCAUAUGGUCAUAGUUCCAUGAAAGCCAAAAGUGGCUUUGAUGUUUCUAUGAUAAGGGUUUCGGCCCGUGGCGUCGGGGAUCGCCUGCCCAUUCCGAUGGGCUUCUCCCCAUUUAUU
DNA 1: ATCTGGAGGGAACTTACAGCATATG
DNA 2: CATATGCTGTAAGTTCCCTCCAGAT
B3: SGN001101 sgRNA ; SGN001101 target (ssRNA ; dsDNA)
RNA: AUAUUUUCUUUAAUGGUGCCAGGCAGUCAUAGUUCCAUUAAAGCCAAAAGUGGCUUUGAUGUUUCUAUGAUAAGGGUUUCGACCCGUGGCGUCGGGGAUCGCCUGCCCAUUGAAAUGGGCUUCUCCCCAU
DNA 1: ATATTTTCTTTAATGGTGCCAGGCA
DNA 2: TGCCTGGCACCATTAAAGAAAATAT
B4: SGN000169 sgRNA ; SGN000169 target (ssRNA ; dsDNA)
RNA: CACAUCUCGAGCAAGACGUUGUCAUAGUUCCAUUAAAGCCAAAAGUGGCUUUGAUGUUUCUAUGAUAAGGGUUUCGACCCGUGGCGUCGGGGAUCGCCUGCCCAUUGAAAUGGGCUUCUCCCCAUUUAUU
DNA 1: CACATCTCGAGCAAGACGTT
DNA 2: AACGTCTTGCTCGAGATGTG

This note sets out measurements from patent US20240301385, “DNA MODIFYING ENZYMES AND ACTIVE FRAGMENTS AND VARIANTS THEREOF AND METHODS OF USE” (LIFEEDIT THERAPEUTICS, INC., published 2024).

The first data set addresses APG05840-L16-nAPG07433.1 (synthetic). Nature of the data set: cell_activity; HEK293FT; PAM SEQ 152. The note with it: tags: SV40 NLS, 3xFLAG N-term; nucleoplasmin NLS C-term. Here is the method: (§1) 500 ng of plasmid comprising an expression cassette comprising a coding sequence for each fusion protein shown in Table 3 and 500 ng of plasmid comprising an expression cassette encoding an sgRNA shown in Table 4 were co-transfected into HEK293FT cells at 75-90% confluency in 24-well plates using Lipofectamine 2000 reagent (Life Technologies). Cells were then incubated at […] for 72 h. Following incubation, genomic DNA was then extracted using NucleoSpin 96 Tissue (Macherey-Nagel) following the manufacturer's protocol. The genomic region flanking the targeted genomic site was PCR amplified using the primers in Table 4 and products were purified using ZR-96 DNA Clean and Concentrator (Zymo Research) following the manufacturer's protocol. The purified PCR products were then sent for Next Generation Sequencing on Illumina MiSeq (2×250). Results were analyzed for INDEL formation or introduction of % specific cytosine mutations.
(§2) The position of each nucleotide in the target sequence was determined. “C17” indicates, for example, a cytosine at position 17 of the target sequence. The position of each nucleotide in the target sequence was determined by numbering the first nucleotide in the target sequence closest to the PAM as position 1, and the position number increases in the 3′ direction away from the PAM sequence.
As for B1, the activity stood at 22.4 % mutated reads. B2 gave an activity of 27.7 % mutated reads.

Take B3: the activity amounted to 24.3 % mutated reads.

For the next data set, the target named is T1, APG09980.1-L16-nAPG07433.1 (truncated …). Put plainly: cell_activity; HEK293FT; PAM SEQ 152. The note with it: tags: SV40 NLS, 3xFLAG N-term; nucleoplasmin NLS C-term. Here is the method:
as §1, §2
Turning to B4, the activity is 24.1 % mutated reads. The molecule B2 yielded an activity of 25.9 % mutated reads. Consider B3, for which the activity amounted to 30.5 % mutated reads.
